Data from the NTF2 design screens of Basanta et al. (2020).

test: protease stability score; higher = more stable; yeast display proteolysis, trypsin and chymotrypsin;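 also: log10 excess protease needed over predicted unfolded state with 0 meaning unfolded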

Going from “DEEVAREMMTKWMRAVQKGDPDTVDKIYNPNGKWKAIDTERQGSEHIKKVMQRVKKQGVEFQVRKAKVEGNQAVVIYDFKLANKTVTFTVELRVQGGRVKEVRVEVDEEAKKDMKKG” to “DEEVEDLYQKIKRAQETGDHKQLRDNFDEEVRIKVGDKTIHGMTRAAKKITREWRHINIDVKVEHVQISNGRLRVRYRFVENDNGKPKTTAANFSMEAHNGRVKHVHVQDDS”, the protease stability score falls from 1.14 to 0.112.

First: DEEVEEQVKELKRILETGDEDRMQENADPNVRAVYGNKEIHGRDQLREEIRSLKDEMRYEVEIKDYRIRPNEADVRATWHMRVNGQPMRQEVKVKIKFHNGKLKVFVLDFDEEHEKRSRK
Second: DEEVEEVIHRLVKALRTNNPDQVNQQLDKDARIKVGDKEIQGRDRYKRTVEQKIQEMNFHIHIKRLEVQGDKVRITAQESSEHNGQPRQRRLKFELRVKNGRVKSAEYHVDK
The protease stability score of the first is lower: -0.054 for the first, 0.183 for the second.

First: DEEVEHQFRTYERALRQGDEQELRDQVDKNAEIEYGDRKIHGMDRAARKIARRVRELRVEDNFVSLEVKENHVQKNVDVVIEVNGRPVRFRADMQVQVHNGKVKEIRVQVPEEVQKRVKE
Second: DEEVERLFKRFMSAVDEGNPDELKKQIDPNAKQHIGDKTYHGRETIASRIVKRRQKMRVTWKSISITDHNGTIKVTAHAVFNHNGRPKEVQLDIEVRAHGDQMKNFRVQVRG
The protease stability score of the first is lower: 0.127 for the first, 0.328 for the second.

Compared with “DEEVFDEFIKHMETGDFRYLQRMFDPNAKASVGNKTVHGREQVQTLLEQLHSQVDHYHLKDVDNNENRMRVHFVLNVNGKNIEAENVFEVRNGRLKHLSIKFRNPEDQEDARRRLE”, “DEEVHKAITHYIEALHKGDPDRAANQMDENVRIEIGDKSITGREHAKHHLERLFKQMEFRITVDRVEVHNGTATAEIHWSSDRNGKPDSNTRRMTAEVHNGKIKQIVFKSDS” is lower in protease stability score: 1.12 for the first, 1.02 for the second.

First: DEEVKDFAEKMLKNWHTGNWQHFAKLLDENAKIVIGDKRYHGTENFERMADSIQKQMSIRIESMSVEVHGEKAKFSATVVENHNGNPTRFHISAEVTVRGDKVDHFNQQNDS
Second: DEEVKHSVDKYLQAVRQGDPDKLREMADENVTVDIGDTTYHGMSEYARRVVERQKKIRIHYDLKSLTVSGNHVKIDQEVVKHHNGKPERNRVTVIMHLNNGRIQSMSVKVDG
The protease stability score of the first is higher: 1.04 for the first, 0.277 for the second.

First: DEEVKRLAERILSALERGDPQQISDNFDPNARLEIGDKRIHGREELRKYVDTVRKTQRISIRSFRVSVHNGQVDIDIHFENEHNGDPDERRRSINIQASNGKAKNVVYQDNK
Second: DEEVKSRADEFIKALKTGDPETISRLMDPNAQVEVGDKTIHGRENIMREIHNLKHRMNLSMEINNVDVQGDTVNIDAVVRFTHNGKPSEHKVDIQVVAQGDKIDHVVFDSTK
The protease stability score of the first is lower: -0.336 for the first, 1.22 for the second.

Going from “DEEVKSVAEQLMDVLQKGDPKQMSRLADKDVKINVGDKQYDGSEQLEKAVEDWKDEMRFQIEHVSISARGDKANVDFHVEFSFNGKPHSREVKVYIKVHNGRIKYLEYRVDPNEERKIKK” to “DEEVKTLVERLVEALNTGDPDSAMHLVDENAKFQYGDRELHGRENVHKFVEDMKREIRIDMEVKRLRVEPGRVKLTAEFSLSVNGQPDHQSVTMRATAHNGQLKDVQFRLPPEKLEKLKS”, the protease stability score rises from -0.267 to -0.199.

Going from “DEEVKTVAEEFWKAIQTGDPDQVKTQVDENARMRVGDKSIHGSDNISTDVERERKEIKVKYNIQDIRASNGTVRVRMDVRRNHNGKPREHEQTMTQTIDNGKIQDVNISTDG” to “DEEVLDDVVKVMHQNDFSRLKELFDKNATIEVGDKRYHGREEAHKLMDIIKKKVDHVRIDKVHKSGNKVRIDAILEYNGNHMKVVFVIKLHNGQAKNIHIEFTSENLQNKFKTLVD”, the protease stability score rises from -0.46 to 1.02.

First: DEEVLDFVKTMIKVEETGDEEKLKEMFDKNVKARVGDKKYHGMDHQARTIRKERESIKFKIKSITMRYKDGRVHASARVVRHENGKPDEYRETYVLQIHNGKVKTYSKQTDS
Second: DEEVLDTVLKALSTNNEEQFHRMADPNDRVSYGDKSIHGMVKAADVQREFRKRVDHIHIQRYDSEGDKAKVTYVAHVDGRNINITITFDVRNGTIRSINIRARNEKNQKRFEEVVG
The protease stability score of the first is lower: -0.188 for the first, 0.245 for the second.

Compared with “DEEVLEEAKKRVETNDPQEFAHNVDENAEMTIGDKQYTGRDQFKHVADAWYERADKIEIKSYTTHNGKIHVNMRMRFDGRDIVFIVEFRVKNGRVQEYKFHVRDETAKTLQQQMLS”, “DEEVLEQVKKYIDAEKSNDPDQAVKLFDENADMQIGDKRVNGREQIKTEIERRIREMNRDVEVTHVHVDNGRATLTVRLRFTVNGKPHEDRFIIQAHATNGRINTLTVHFDEQSKRDVDK” is higher in protease stability score: 0.231 for the first, 0.741 for the second.

First: DEEVLHLADRWWEAVDRGNERQLKDNADPNVKVRVGDKTIRGRDQMAKEVRHRREEQRVNYHHFRQDVSGDKANVTVHYTREHNGKPETNVIEVVFQAHNGKIVSITVRHDG
Second: DEEVLKVAHDWFENVTQGDPDKLSRLMDKDARVNVGEKQYHGREEIMRQHERENKEAEVTFQKMDFKVTGDRAVVNVRVDVNINGQPFEVTFIFKLEVHNGRIKQIEMDFSEEQWDKLRR
The protease stability score of the first is higher: -0.148 for the first, -0.211 for the second.

First: DEEVLQEYREAFEEGDEERIQNLADENVKVTYGDKDYHGRHDMRKFMKWLKRAADRIEIKRYTQTGDKLRIVVVMHVNGQTIKFSVVVRVHNGNVKSVRMDATSEEDRKHFERVVD
Second: DEEVNHQMSRMWEANKRGDEHTLRELVDPNAKIDVGDKRVHGMEEYVKQVRNRREDLRWRFKIDHMSVDGDTVKFRARAVENENGRPQSYKFEQNVRVHNGKLTEQNQQDHG
The protease stability score of the first is higher: 0.755 for the first, 0.181 for the second.

First: DEEVQELVERIMTAFRTGNPEEVHKNLDPNAHIEVGDKRLHGMETIVHTIERKLRHARIDMKIDEMEVRNGRVEARVSFHVDVNGEPYSNSFSFQIEARNGKVKKVRVQIDPRDQRKMDS
Second: DEEVQNLFEELVEAVKTGDEDRLRENVDPNATFEYGDKTFHGMDTFVKTVKKIRESMRLTLEVKSYEVQGDKVKAEVDAKQDHNGQPVSYTMDLHIDARNGKVKRIVRQVPEEDKTRIER
The protease stability score of the first is higher: 0.877 for the first, -0.032 for the second.

First: DEEVQRQLENNWQKMREGDEEHLTRHVDENARFDVGDKRVRGMENYVKDVRREREEMHVNMTYDDMHVQGNEIRFTVRARWDVNGKPYDDNFDHKYEYHNGRLKSAHVRVDEDFERKRRK
Second: DEEVREVVKKMLEALKTGNSEQVRRNIDPNARLHVGEFDYHGQTQISEAVKRLSNEIKINYKDMKMRLHNGRVDVKVHQQNNSNGKPEEKTWRATIVAKNGRIKEIDQRDDK
The protease stability score of the first is higher: -0.089 for the first, -0.481 for the second.

First: DEEVRHVAEEHFRAFSDNDPDRAKQLADPNARFQYGDREIHGMEDFVKHLETLKRDMRIQIHIKSMDVHNGRVDVTFNLMAHVNGQPFRIEVRATFEAHNGHLVEVQYRFDKKWQKTLES
Second: DEEVRKAYHDAMKAEEKGDEDRIRELFDPNARVQVGDKTYQGREDISHNLAREQKHARYHIKHVDLQVHNGRLTVKQTYDFQHNGQPNSDRDKATIEADGENIKDVEVKQNP
The protease stability score of the first is higher: 0.861 for the first, -0.27 for the second.

Compared with “DEEVSEAVQRYLNALKHNNPDQVQEQMDPNARVQYGDKVLTGREDIKTFMDTKIEQMRLEIKSVSVDVHGEEVRVEADVVYTHNGQPRRNKITITARVHNGVFKSMRVETRG”, “DEEVVHDLENQFRKNNWEEFARQADENAKVNIGEFEISGRSQIEEWAHRVKKQVDHIDVKHVSYDEDHLRMRVVVVVNGRKFDFEVIINVSNGEVKHMEVRFRDPSQETEWLNQIN” is higher in protease stability score: -0.064 for the first, 1.61 for the second.

Going from “DEEVVKLLLELMKAWRTGDRDKAVKLMDPNVEIQVGDTYIHGREQNREEIKRIKDEIRWELSVKSYNQHNGQARIDADVTINVDGHPTHYRVDIRAEATNGEVKKITYNVPEEVLEEVKR” to “DEEVVRQIEDNLNAQRRNDHEKLKENMDPNATVNVGDKQIHGMSQFAQHVRDMFRHIRRSIKDFRIEVRPNHANVDVKFEVNINGKPESMSANVSVRVTNGTVQEMTIRVDPEHVKRIRR”, the protease stability score rises from 0.026 to 0.816.

Work on “DEEWEETMTRLVKTGDFQSLVRLAPEDVKYVVGEKRIHGREHASEFAKKLTEQIDRIQVKEMHVSGDRVRADFELEFNGRKLKAVLVVKIHGDKVREVMIEVTDEHDEDILREIDD” yielded a protease stability score of 0.8.
